Reference: article PMC7273913

Molecular target: Xenopus laevis FANCD2, 6xHis-tagged (Xenopus laevis)

in vitro FANCD2 monoubiquitination (Ube1, Ube2T, FANCL URD-RING, fluorescently labelled ubiquitin, 10 min at 30°C), against WT FANCL: 47 % of WT
B1: Human FANCL URD-RING (109–375) hydrophobic patch mutant L248A, F252A, L254A, I265A (domain or fragment)
chain: QFYSSLIEEIGTLGWDKLVYADTCFSTIKLKAEDASGREHLITLKLKAKYPAESPDYFVDFPVPFCASWTPQSSLISIYSQFLAAIESLKAFWDVMDEIDEKTWVLEPEKPPRSATARRIALGNNVSINIEVDPRHPTMAPECAFAGADHVVKPLGAKLSRNIHLWDPENSVLQNLKDVLEIDFPARAILEKSDFTMDCGICYAYQLDGTIPDQVCDNSQCGQPFHQICLYEWLRGLLTSRQSFNIIFGECPYCSKPITLKMSGRKH
